experiment: soluble on expression in E. coli; label from the status in PepcDB or PDB records

| Sequence | soluble on expression in E. coli |
| --- | --- |
| MGHHHHHHSHNFHYGAGHPMKPHRLALTHSLVLHYGLYKKMIVFKPYQASQHDMCRFHSEDYIDFLQRVSPTNMQGFTKSLNAFNVGDDCPVFPGLFEFCSRYTGASLQGATQLNNKICDIAINWAGGLHHAKKFEASGFCYVNDIVIGILELLKYHPRVLYIDIDIHHGDGVQEAFYLTDRVMTVSFHKYGNYFFPGTGDMYEVGAESGRYYCLNVPLRDGIDDQSYKHLFQPVINQVVDFYQPTCIVLQCGADSLGCDRLGCFNLSIRGHGECVEYVKSFNIPLLVLGGGGYTVRNVARCWTYETSLLVEEAISEELPYSEYFEYFAPDFTLHPDVSTRIENQNSRQYLDQIRQTIFENLKMLNHAPSVQIHDVPADLLTYDRTD | not soluble |
| MGHHHHHHSHPPTAPDRATAVATASRLGPYVLLEPEEGGRAYQALHCPTGTEYTCKVYPVQEALAVLEPYARLPPHKHVARPTEVLAGTQLLYAFFTRTHGDMHSLVRSRHRIPEPEAAVLFRQMATALAHCHQHGLVLRDLKLCRFVFADRERKKLVLENLEDSCVLTGPDDSLWDKHACPAYVGPEILSSRASYSGKAADVWSLGVALFTMLAGHYPFQDSEPVLLFGKIRRGAYALPAGLSAPARCLVRCLLRREPAERLTATGILLHPWLRQDPMPLAPTRSHLWEAAQVVPDGLGLDEARE | not soluble |
| MGHHHHHHSHSKKPYIVTIACTKGGSAKSTNAANIGAFCADHGLRTLLIDTDTQPTLSSYYSLAKTAPGGIYEFLLQRDVEPSHIVSQTSIKNLDLIQSNDPSNNVSHMLRNAPDGSIRFSHLIKSINNYDVIVIDTRGTRDITVDMSVLAADILFCPILPQILSAKEFIRGTIGMYQDLQTFESFGFKLPPLKAIANGVDNTNDVKFVMQKLHTLFANTFDESKTLLDFSIPYHVAYREAVTYALPVYRHSAVEYPVMQQLCC | not soluble |
| MGHVDREDLLNVIRHELRLEDDDGPGLCSRLLLNPDRKCRAGGLPLDFRLKNGDLMDDGDAGFDDIYEIPLYEEPIHTRTLINDSLALRTAEKIKEEGRRDNFYTGPLDELFVKQEVNWPPKTPISTEKSAIERYLEENSANLNNPLGEYSKFAATTTDPSRQIEIIIPMSCDEEIGFKTLKIEVLTTARIREVIGYCLLQYYLTFDSYLPGEVDDYQFYLAEEDGEIEHELPPLDSSKLVGQVGFTCLGLVSRIKKNGNSRQKRAVAVWFVDKDQYVIEVDNMEKPLRWLRDEAFRLREETVKEREPLFQGLLDIKEYYMEAVDNFDVKLDLEASISSARSLEFVMIRKNSSRAGFHPRGGRYGRQMSAMLTLKMPNSPIAAGPMTPLPTVMEESPAVAGTSNGFGFPKAESCGAIASTPGVTWNDDGGQLSSFIVQRIHKFKPKWKANLSTVV | not soluble |
| MGIPSDFSNTGLTGFNVSSTKLVKIEQQYKGVKGKKFISPGGGKFVRIDDPGAVDSNGLRTADASNTSISLETGNTWLPRLHADGTLTCGGKCAWLECTNVTIPKNKRLWFRYAFLRFSSLPADSFSVLLCFPNDDTSVPPLPPYWICSVKELQENRGNINQTDWTECFVEIDKNADFHGTLRWVVATGHNLADQNSIPDNTRFTRPGCLLIDAIDIR | not soluble |
| MGKALIIGCGGVASVAVHKCVQNSEVFEEICIASRTKSKCDALKAKLDGGKTKITTAQVDANNVDELIALIEEVKPDVVMNLALPYQDLTIMDACLATKTNYLDTANYEPEDTAKFEYKWQWDYRERFEKAGITALLGSGFDPGVTGVFSAYALKHHFDEIEYIDILDCNAGDHGYPFATNFNPEINIREVSANGRYWENGEWVETNPMEIKRVYNFPEVGEKDMYLLYHEELESLAVNIPGIKRIRFFMTFSESYLTHLKCLENVGMTSIEPIEFEGKEIIPLQFLKAVLPDPASLGPRTKGKTNIGCIFKGKKDGKDKTYYLYNVCDHEECYKEVGSQAVSYTTGVPAMIGAMMLMTGKWNKPGVYNIEEFDPDPFMEALNKWGLPWKEDHNPQLVDSDPIKETELVR | not soluble |
| MGKEYVVIGLGRFGGSIVRELNALDMDVMAIDHDENRVNEYSDIATHAVVADTTDEAVMKSLGIRNFDHVIVAIGENIQSSTLTTLILKELGVKKVTAKAQNDYHAKILNKIGADTVVHPERDMGRRIAHNVASASVLDYLELADEHSIVELKATEKMAGQSIIDLDIRAQYGINIIAIKRGKEFIISPNPNINLEIGDILIMIGHDNDLNRFEKNIATR | not soluble |
| MGKFSNQKKNRVKNKVAVTVKKAQRMKADAKNAKKDGEVDVEMKEEVVRVRGLAVSSLKKLASGELQNVPKVNEKKIIRKTELPVRENKKILDAPTGKRGTTAQYITKKKAKKMYKKMTHDARDKYRKIQAELAGDGEDDEEGEAEVMEQ | not soluble |
| MGKLNLYQMKKVEIIVRGEDLDFVLDLLEKAGVKGYTIIHNLSGKGSHGFHEGHLLFNEEDVLDMVISVMPEEKVEAILEGLTPFFNKHSGVVFVSDVQVSRLEKFKNG | not soluble |
| MGKLVEGVWHDVWYDTKANGGKFVREDAGFRDWIKNDSEAVFQPESGRYHLYVSLACPWAHRTLIFRKLKGLEPHIDVTVVCPDMLSQGWQMGLPEPLFGHTRMHQIYTQAKPDYTGRVTVPVLWDKKTNTIVSNESSEIIRMFNSAFNDLTGNHDDYYPEPLRGVIDEWNDYIYPNVNNGVYRCGFATSQEAYEEAFESLFSALDKIDAHLATHRYLAGNKITEADWRLFTTLVRFDAVYVGHFKCNKQRIADYVNIQGYLKELYQIDGIADTTDFYHVKRHYYFSHTGINPTQVVPKGPDLDFSSPHQREMIG | soluble |
| MGKQLESRTIPPYEPKAGEEYMSPEQLAHFRKILEYQRAELSMEIDRAVHVMQEESTIFADPADRATQESDMALELRSRDRERKLIKKIDEIFTKIDSGEYGYCEKCGIEIGLKRLEARPTASLCIDCKTLDEIRERQMAK | not soluble |
| MGKSELSGRLNWQALAGLKASGAEQNLYNVFNAVFEGTKYVLYEKPKHLKNLYAQVVLPDDVIKEIFNPLIDLSTTQWGVSPAFAIENTETHKILFGEIKRQDGWVEGKDPSAGRGNAHERSCKLFTPGLLKAYRTIGGINDEEILPFWVVFEGDITRDPKRVREITFWYDHYQDNYFMWRPNESGEKLVQHFNEKLKKYLD | soluble |
| MGKSSKPIQTTQNTTQTNAPPEWAKGIFERAAKDAMSFYNQGSGKAVYDGQRVAGLSDQTKNAINGLSNNTHNYDNNYLNGLATGQNSTSQNLKNMASGHEIGNNPYFKEALQNTLNKASDTINSSLAGAGRYGSGAHTGVLADELGSIATQALSQQYNQDVNNMMQANGMIDQANQNQLASANNFFQGQGQANLNALSGGGLLDANHQQQLDEERQKWEQQNNLDWDQLSKLLAAGTASAGNYGMQTEQRTQFTPQTKLNPWQTIGNVGTILGTFAGLSDRRAKENIREAGQKKGYTLYEYNYKGSPERYRGVMAQDVLRSNPEAVFYNNTTGLLHVDYDKLGFNMERVQ | not soluble |
| MGKVTGFLEIERHDRVYAPVTDRVKNYNEFVVPLSEKDLRDQAARCMNCGIPYCHGTGSAQPGATGCPVNNQIPDWNDLVYNGYWQEAARTLHSTNNFPEFTGRICPAPCEASCTLNIDDNPVTIKTIECAIVDTAFDNGWVTPEIAAVKTGQSVAVVGAGPAGLACAQQLARAGHDVHVYEKFAKAGGLLRYGIPDFKMEKTLIDRRVAQMEAEGVTFHYGAPVGGSAPGAVDPAELLKQYDAVALTGGAEAPRDLPIPGRELGGIHFAMDFLTQQNRRVSGEAVNGTDILAAGKNVVVIGGGDTGSDCIGTSIRQGAKSVTQIEIMPAPPERENKALTWPNWPMKMRTSSSQAEGAAREFAVMTQSFEGEGGVVKKLNCVRVDAKFQPIPGTEFTLEADLVLLAMGFVSPVKEGLLTQLGVALDPRGNVAADLSHFTTSVDKVFAAGDMRRGQSLVVWAIREGRLCAQAIDRFLMGATTLPRLEHHHHHH | not soluble |
| MGLADDAPLGYLLYRVGAVLRPEVSAALSPLGLTLPEFVCLRMLSQSPGLSSAELARHASVTPQAMNTVLRKLEDAGAVARPASVSSGRSLPATLTARGRALAKRAEAVVRAADARVLARLTAPQQREFKRMLEKLGSD | not soluble |
| MGLEKTVKEKLSFEGVGIHTGEYSKLIIHPEKEGTGIRFFKNGVYIPARHEFVVHTNHSTDLGFKGQRIKTVEHILSVLHLLEITNVTIEVIGNEIPILDGSGWEFYEAIRKNILNQNREIDYFVVEEPIIVEDEGRLIKAEPSDTLEVTYEGEFKNFLGRQKFTFVEGNEEEIVLARTFCFDWEIEHIKKVGLGKGGSLKNTLVLGKDKVYNPEGLRYENEPVRHKVFDLIGDLYLLGSPVKGKFYSFRGGHSLNVKLVKELAKKQKLTRDLPHLPSVQALLEHHHHHH | soluble |

— the DeepSol protein solubility set
